Assay results from patent publication US9273304B2, “Inactivation method” (Thermo Fisher Scientific Baltics UAB, priority 2006, dated 2016).

T1: Pfu DNA polymerase (Pyrococcus furiosus, UniProt P61875)
T1 construct: Native Pfu DNA polymerase was used at initial concentration of 1.065 mg/ml
T1 sequence (P61875 1-775): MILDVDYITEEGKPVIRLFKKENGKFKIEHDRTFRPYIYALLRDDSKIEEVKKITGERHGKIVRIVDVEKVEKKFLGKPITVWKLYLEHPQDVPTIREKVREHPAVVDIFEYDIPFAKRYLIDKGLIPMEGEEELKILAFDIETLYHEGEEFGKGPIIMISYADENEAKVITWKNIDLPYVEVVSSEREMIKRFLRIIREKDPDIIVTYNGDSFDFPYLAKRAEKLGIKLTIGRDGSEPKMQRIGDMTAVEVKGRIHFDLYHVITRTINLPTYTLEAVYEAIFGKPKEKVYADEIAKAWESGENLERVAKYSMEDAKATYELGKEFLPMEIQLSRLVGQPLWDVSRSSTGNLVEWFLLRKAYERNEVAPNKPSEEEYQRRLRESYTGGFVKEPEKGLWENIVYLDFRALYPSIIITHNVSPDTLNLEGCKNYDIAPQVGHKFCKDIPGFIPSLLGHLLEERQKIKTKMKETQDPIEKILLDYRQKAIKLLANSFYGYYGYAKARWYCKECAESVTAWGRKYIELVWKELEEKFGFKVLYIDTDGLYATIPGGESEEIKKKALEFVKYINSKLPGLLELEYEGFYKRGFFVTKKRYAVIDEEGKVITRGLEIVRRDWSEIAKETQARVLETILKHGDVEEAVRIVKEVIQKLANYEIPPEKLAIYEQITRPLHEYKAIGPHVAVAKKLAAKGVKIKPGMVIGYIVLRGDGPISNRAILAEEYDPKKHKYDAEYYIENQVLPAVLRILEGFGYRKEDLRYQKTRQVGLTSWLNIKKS

B1: Pfu DNA polymerase modified with N-etoxycarbonyl-2,3-dimethylmaleinimide: Native Pfu DNA polymerase reversibly inactivated with N-ethoxycarbonyl-2,3-dimethylmaleinimide, molar ratios 1/200 and 1/800 (protein, UniProt P61875 1-775, looked up)
DNA polymerase: T1 sequence (P61875 1-775)
modifications: modified with dimethylmaleinimide reagent

How the values were obtained:
Taq DNA polymerase = Taq DNA polymerase (Thermus aquaticus, UniProt P19821); test: Polymerase activity assay: incorporation of [3H]-dTTP into the polynucleotide adsorbed on DE-81 in 30 min at 70° C.; format: biochemical; conditions: aqueous solution
Method: The measure of the enzyme activity was incorporation of [^3H]-dTTP into polynucleotide fraction. One unit of polymerase activity is defined as the enzyme amount which incorporates 10 nmoles of deoxyribonucleotides into the polynucleotide adsorbed on DE-81 in 30 min at 70° C.
For activity assays, Taq DNA polymerase was diluted up to 4 u/ml with the dilution buffer of the following composition: 20 mM Tris-HCl (pH 8.8 at 25° C.), 1 mM EDTA, 1 mM DTT, and BSA (0.1 mg/ml). Reactions were carried out at 70° C. for 30 min with 5 μl of the diluted enzyme in 50 μl of the reaction buffer of the following composition: 67 mM Tris-HCl (pH 8.8 at 25° C.), 50 mM NaCl, 6.7 mM MgCl2, 1 mM DTT, and BSA (0.1 mg/ml). The reaction buffer was supplemented with 0.2 mM dNTP, [3H]-dTTP (0.4 MBq/ml) and 0.75 mM activated DNA from calf thymus.
Activity of the modified enzymes was measured either with the pre-incubation step, or without it, for 10 min at 95° C. in the pre-heating buffer of the following composition: 20 mM Tris-HCl (pH 8.25 at 25° C.), 100 mM KCl, 2 mM MgCl2, 0.5% Tween 20, 0.5% Nonidet P40, and 16% glycerol.
(§1) Aliquots (35 μl) of the enzyme solution were mixed with 2.25 μl aliquots of the N-ethoxycarbonyl-2,3-dimethylmaleinimide solutions described above resulting in the following molar ratios of Taq DNA polymerase to N-ethoxycarbonyl-2,3-dimethylmaleinimide: 1/1280 1/640, 1/320, 1/160, 1/110, 1/80, 1/40. The mixtures were incubated for 20 hours at 4° C. to modify the Taq DNA polymerase. Control samples, in which the enzyme was left unmodified (e.g., the ratio was 1/0), were obtained by mixing the Taq DNA polymerase with a 2.25 μl aliquot of DMF. These control samples were incubated under the same conditions as the modified ones.
The samples of the unmodified Taq DNA polymerase and the modified Taq DNA polymerases were diluted 250-fold in the pre-heating buffer (see Example 2) and activities of the modified enzyme were measured both before heat-reactivation and after it, as described in the Example 2. Activities of both inactivated and heat-reactivated DNA polymerases were determined as described in the Example 2, and the data were normalized to activity of the unmodified Taq DNA polymerase
Aliquots (20.6 μl) of the diluted enzyme solution were mixed with 1 μl of N-isobutoxycarbonyl-2,3-dimethylmaleinimide solutions described above resulting in different molar ratios of Taq DNA polymerase to N-isobutoxycarbonyl-2,3-dimethylmaleinimide (1/320, 1/160, 1/80 and 1/40). The mixtures were incubated 20 hours at 4° C. to modify the Taq DNA polymerase. Control samples, in which the enzyme was left unmodified (e.g., the ratio was 1/0), were obtained by mixing the Taq DNA polymerase with a 1 μl aliquot of DMF. These control samples were incubated under the same conditions as the modified ones. The heat-reactivation of the modified enzymes was performed as described in the Example 3.

Pfu DNA polymerase = target: T1, Pfu DNA polymerase; test: Polymerase activity assay: incorporation of [3H]-dTTP into the polynucleotide adsorbed on DE-81 in 30 min at 50° C. or 72° C.; format: biochemical; conditions: aqueous solution
Method: as §1, with “A set of N-ethoxycarbonyl-2,3-dimethylmaleinimide solutions (72 mM, 18 mM) was prepared by serial dilutions of the 720 mM stock in N,N dimethylformamide (DMF). Aliquots” for “Aliquots”, “(25” for “(35”, “1” for “2.25”, “Pfu” for “Taq”, “1/800, 1/200.” for “1/1280 1/640, 1/320, 1/160, 1/110, 1/80, 1/40.”
The samples of the unmodified Pfu DNA polymerase and the modified Pfu DNA polymerases were diluted in the pre-heating buffer (see Example 2) either 9-fold for measurements at 50° C., or 24-fold for measurements at 72° C. (see Example 2). Activities of the modified enzymes were measured either with the pre-incubation step, or without it, for 10 min at 95° C.
For activity assays, Pfu DNA polymerase was diluted up to 11 u/ml (91 u/ml for measurements at 50° C.) in the dilution buffer (see Example 2). Reactions were carried out either at 50° C., or at 72° C. for 30 min. Aliquots (5 μl) of the diluted enzyme were added to 50 μl of the reaction buffer of the following composition: 20 mM Tris-HCl (pH 8.8 at 25° C.), 10 mM (NH4)2SO4, 10 mM KCl, 2 mM MgCl2, 0.1% Triton X-100, and BSA (0.1 mg/ml) supplemented with, 0.2 mM dNTP, [3H]-dTTP (0.4 MBq/ml) and 0.75 mM activated DNA from calf thymus.

[1] = molar ratio Taq DNA polymerase/N-iso-butoxycarbonyl-2,3-dimethylmaleinimide 1/40
[2] = molar ratio Taq DNA polymerase/N-iso-butoxycarbonyl-2,3-dimethylmaleinimide 1/80
[3] = molar ratio Taq DNA polymerase/N-iso-butoxycarbonyl-2,3-dimethylmaleinimide 1/160
[4] = molar ratio Taq DNA polymerase/N-iso-butoxycarbonyl-2,3-dimethylmaleinimide 1/320
[5] = molar ratio Pfu/N-etoxycarbonyl-2,3-dimethylmaleinimide 1/200
[6] = molar ratio Pfu/N-etoxycarbonyl-2,3-dimethylmaleinimide 1/800

Chain of Taq DNA polymerase (P19821 whole entry): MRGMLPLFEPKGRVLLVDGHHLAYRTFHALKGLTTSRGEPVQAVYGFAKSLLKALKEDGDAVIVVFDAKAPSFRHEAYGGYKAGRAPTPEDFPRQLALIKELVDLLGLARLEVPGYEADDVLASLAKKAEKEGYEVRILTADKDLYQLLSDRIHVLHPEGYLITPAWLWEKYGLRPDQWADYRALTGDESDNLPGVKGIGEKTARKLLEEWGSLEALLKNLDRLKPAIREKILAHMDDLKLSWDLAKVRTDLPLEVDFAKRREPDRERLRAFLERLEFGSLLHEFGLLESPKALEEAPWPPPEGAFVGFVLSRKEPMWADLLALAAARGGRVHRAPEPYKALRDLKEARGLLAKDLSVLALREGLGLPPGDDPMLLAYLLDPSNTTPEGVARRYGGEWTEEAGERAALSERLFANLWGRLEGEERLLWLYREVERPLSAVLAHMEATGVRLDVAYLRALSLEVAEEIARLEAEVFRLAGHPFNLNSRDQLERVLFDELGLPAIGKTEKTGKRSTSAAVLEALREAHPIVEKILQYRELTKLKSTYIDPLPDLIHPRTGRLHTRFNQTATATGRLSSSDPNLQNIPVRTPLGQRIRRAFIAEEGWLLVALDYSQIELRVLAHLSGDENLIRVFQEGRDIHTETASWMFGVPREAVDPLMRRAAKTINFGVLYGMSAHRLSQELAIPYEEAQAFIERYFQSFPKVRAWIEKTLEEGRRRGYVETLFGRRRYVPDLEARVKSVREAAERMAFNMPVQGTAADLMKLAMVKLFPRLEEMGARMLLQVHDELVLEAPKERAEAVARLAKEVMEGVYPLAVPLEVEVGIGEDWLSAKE

Molecule | Activity at 70° C. (%) After 10 min. preheating at 95° C. (Taq DNA polymerase; [1]) | Activity at 70° C. (%) Without preheating at 95° C. (Taq DNA polymerase; [1]) | Activity at 70° C. (%) After 10 min. preheating at 95° C. (Taq DNA polymerase; [2]) | Activity at 70° C. (%) Without preheating at 95° C. (Taq DNA polymerase; [2]) | Activity at 70° C. (%) After 10 min. preheating at 95° C. (Taq DNA polymerase; [3]) | Activity at 70° C. (%) Without preheating at 95° C. (Taq DNA polymerase; [3]) | Activity at 70° C. (%) After 10 min. preheating at 95° C. (Taq DNA polymerase; [4]) | Activity at 70° C. (%) Without preheating at 95° C. (Taq DNA polymerase; [4]) | Activity at 50° C. (%) After 10 min. preheating at 95° C. (Pfu DNA polymerase; [5]) | Activity at 50° C. (%) Without preheating at 95° C. (Pfu DNA polymerase; [5]) | Activity at 72° C. (%) After 10 min. preheating at 95° C. (Pfu DNA polymerase; [5]) | Activity at 50° C. (%) After 10 min. preheating at 95° C. (Pfu DNA polymerase; [6]) | Activity at 50° C. (%) Without preheating at 95° C. (Pfu DNA polymerase; [6]) | Activity at 72° C. (%) After 10 min. preheating at 95° C. (Pfu DNA polymerase; [6])
Taq DNA polymerase treated with N-iso-butoxycarbonyl-2,3-dimethylmaleinimide: Recombinant Taq DNA polymerase modified with N-isobutoxycarbonyl-2,3-dimethylmaleinimide in aqueous solution, molar ratios 1/40 to 1/320 | ~90% | ~50% | ~100% | ~40% | ~80% | ~30% | ~40% | ~10% |  |  |  |  |  | 
B1 |  |  |  |  |  |  |  |  | ~100% | ~20% | ~100% | ~100% | ~0% | ~90%
